What was measured:
[1] = target: Biotinylated human BSSL (human) (UniProt P19835); experiment: flow cytometry displacement assay; 1.5 ug antibody, 1 ug b-hBSSL
[2] = target: Biotinylated human BSSL (human) (UniProt P19835); experiment: flow cytometry displacement assay; 2.0 ug antibody, 1 ug b-hBSSL
[3] = target: Biotinylated human BSSL (human) (UniProt P19835); experiment: flow cytometry displacement assay; 0.5 ug antibody, 1 ug b-hBSSL
[4] = target: Biotinylated human BSSL (human) (UniProt P19835); experiment: flow cytometry displacement assay; 1.0 ug antibody, 1 ug b-hBSSL
[5] = target: Biotinylated human BSSL (human) (UniProt P19835); experiment: flow cytometry displacement assay; 3.0 ug antibody, 1 ug b-hBSSL

Biotinylated human BSSL (human), sequence (P19835 other isoform, or with tags, fused parts or gaps): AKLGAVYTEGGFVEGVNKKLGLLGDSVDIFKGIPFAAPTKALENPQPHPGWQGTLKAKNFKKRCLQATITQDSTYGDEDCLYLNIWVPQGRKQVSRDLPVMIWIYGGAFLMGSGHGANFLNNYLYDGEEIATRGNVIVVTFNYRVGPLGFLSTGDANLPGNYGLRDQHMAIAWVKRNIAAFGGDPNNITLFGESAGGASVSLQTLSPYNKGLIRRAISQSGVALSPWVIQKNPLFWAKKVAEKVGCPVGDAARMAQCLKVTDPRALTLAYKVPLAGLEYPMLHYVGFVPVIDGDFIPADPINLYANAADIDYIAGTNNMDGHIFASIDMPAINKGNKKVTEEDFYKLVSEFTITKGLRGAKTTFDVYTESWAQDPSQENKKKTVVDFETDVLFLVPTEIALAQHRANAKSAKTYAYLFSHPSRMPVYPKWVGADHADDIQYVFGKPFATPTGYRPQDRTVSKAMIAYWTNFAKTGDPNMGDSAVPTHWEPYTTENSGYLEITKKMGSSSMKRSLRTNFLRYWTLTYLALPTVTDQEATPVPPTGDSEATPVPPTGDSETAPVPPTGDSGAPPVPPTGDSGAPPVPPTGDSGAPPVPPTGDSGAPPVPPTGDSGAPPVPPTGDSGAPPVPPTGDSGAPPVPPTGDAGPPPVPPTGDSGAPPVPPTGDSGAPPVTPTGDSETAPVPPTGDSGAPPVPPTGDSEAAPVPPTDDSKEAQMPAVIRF

percentage reduction of b-hBSSL binding to CD14+ monocytes [1]: -4% | percentage reduction of b-hBSSL binding to CD14+ monocytes [2]: -1% | percentage reduction of b-hBSSL binding to CD14+ monocytes [3]: -8% | percentage reduction of b-hBSSL binding to CD14+ monocytes [4]: -2% | percentage reduction of b-hBSSL binding to CD14+ monocytes [5]: -7%
Substance: anti-human alpha-synuclein mlgG1 (antibody)
